Results from paper PMC10397247.

Columns and labels:
4H3129-bH = biological target: T1, 4H3129-bH; assay: two-hybrid library CCNG1;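 also: natural log of median RNA to DNA barcode read ratio; higher means stronger binding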
T1 chain: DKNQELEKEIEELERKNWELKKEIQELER

4H1804-bH = biological target: T2, 4H1804-bH; assay: two-hybrid library CCNG1;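 also: natural log of median RNA to DNA barcode read ratio; higher means stronger binding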
T2 chain: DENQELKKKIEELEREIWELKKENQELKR

4H1393-bH = biological target: T3, 4H1393-bH; assay: two-hybrid library CCNG1;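 also: natural log of median RNA to DNA barcode read ratio; higher means stronger binding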
T3 chain: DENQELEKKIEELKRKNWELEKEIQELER

4H1629-bH = biological target: T4, 4H1629-bH; assay: two-hybrid library CCNG1;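 also: natural log of median RNA to DNA barcode read ratio; higher means stronger binding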
T4 chain: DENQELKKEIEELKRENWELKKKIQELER

4H3172-bH = biological target: T5, 4H3172-bH; assay: two-hybrid library CCNG1;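 also: natural log of median RNA to DNA barcode read ratio; higher means stronger binding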
T5 chain: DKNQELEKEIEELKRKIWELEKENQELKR

4H1710-bH = biological target: T6, 4H1710-bH; assay: two-hybrid library CCNG1;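 also: natural log of median RNA to DNA barcode read ratio; higher means stronger binding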
T6 chain: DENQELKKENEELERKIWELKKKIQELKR

4H3628-bA = biological target: T7, 4H3628-bA; assay: two-hybrid library CCNG1
T7 chain: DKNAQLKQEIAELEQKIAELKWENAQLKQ

4H570-bH = biological target: T8, 4H570-bH; assay: two-hybrid library CCNG1
T8 chain: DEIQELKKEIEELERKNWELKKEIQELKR

4H584-bH = biological target: T9, 4H584-bH; assay: two-hybrid library CCNG1
T9 chain: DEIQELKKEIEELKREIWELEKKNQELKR

4H3638-bH = biological target: T10, 4H3638-bH; assay: two-hybrid library CCNG1
T10 chain: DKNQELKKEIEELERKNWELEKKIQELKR

4H619-bH = biological target: T11, 4H619-bH; assay: two-hybrid library CCNG1
T11 chain: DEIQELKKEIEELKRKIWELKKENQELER

4H1449-bH = biological target: T12, 4H1449-bH; assay: two-hybrid library CCNG1
T12 chain: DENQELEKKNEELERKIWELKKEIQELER

4H850-bH = biological target: T13, 4H850-bH; assay: two-hybrid library CCNG1
T13 chain: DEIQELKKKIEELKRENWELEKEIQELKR

4H906-bH = biological target: T14, 4H906-bH; assay: two-hybrid library CCNG1
T14 chain: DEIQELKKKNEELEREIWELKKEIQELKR

4H3414-bH = biological target: T15, 4H3414-bH; assay: two-hybrid library CCNG1
T15 chain: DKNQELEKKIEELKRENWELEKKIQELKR

4H3974-bH = biological target: T16, 4H3974-bH; assay: two-hybrid library CCNG1
T16 chain: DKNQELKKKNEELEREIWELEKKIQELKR

4H2702-bA = biological target: T17, 4H2702-bA; assay: two-hybrid library CCNG1
T17 chain: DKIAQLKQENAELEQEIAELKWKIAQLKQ

4H3817-bH = biological target: T18, 4H3817-bH; assay: two-hybrid library CCNG1
T18 chain: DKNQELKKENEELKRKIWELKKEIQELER

APC2724-AA = biological target: T19, APC2724-AA; assay: two-hybrid library CCmax; settings: mean of both orientations
T19 chain: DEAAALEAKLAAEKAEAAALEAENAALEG

APC3265-AA = biological target: T20, APC3265-AA; assay: two-hybrid library CCmax; settings: mean of both orientations
T20 chain: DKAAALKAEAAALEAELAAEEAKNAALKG

APC2257-AA = biological target: T21, APC2257-AA; assay: two-hybrid library CCmax; settings: mean of both orientations
T21 chain: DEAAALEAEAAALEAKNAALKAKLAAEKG

APC9291-AA = biological target: T22, APC9291-AA; assay: two-hybrid library CCmax; settings: mean of both orientations
T22 chain: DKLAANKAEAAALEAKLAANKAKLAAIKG

APC9182-AA = biological target: T23, APC9182-AA; assay: two-hybrid library CCmax; settings: mean of both orientations
T23 chain: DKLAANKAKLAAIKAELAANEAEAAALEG

APC542-AA = biological target: T24, APC542-AA; assay: two-hybrid library CCmax; settings: mean of both orientations
T24 chain: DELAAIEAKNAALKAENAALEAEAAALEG

APC2981-AA = biological target: T25, APC2981-AA; assay: two-hybrid library CCmax; settings: mean of both orientations
T25 chain: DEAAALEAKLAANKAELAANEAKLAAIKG

APC7524-AA = biological target: T26, APC7524-AA; assay: two-hybrid library CCmax; settings: mean of both orientations
T26 chain: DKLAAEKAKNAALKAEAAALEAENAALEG

APC2474-AA = biological target: T27, APC2474-AA; assay: two-hybrid library CCmax; settings: mean of both orientations
T27 chain: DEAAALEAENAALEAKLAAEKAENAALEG

APC2375-AA = biological target: T28, APC2375-AA; assay: two-hybrid library CCmax; settings: mean of both orientations
T28 chain: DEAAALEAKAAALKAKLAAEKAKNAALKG

APC3323-AA = biological target: T29, APC3323-AA; assay: two-hybrid library CCmax; settings: mean of both orientations
T29 chain: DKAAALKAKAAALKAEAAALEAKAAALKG

APC4336-AA = biological target: T30, APC4336-AA; assay: two-hybrid library CCmax; settings: mean of both orientations
T30 chain: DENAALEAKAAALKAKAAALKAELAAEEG

APC8401-AA = biological target: T31, APC8401-AA; assay: two-hybrid library CCmax; settings: mean of both orientations
T31 chain: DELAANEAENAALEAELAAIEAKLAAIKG

APC5531-AA = biological target: T32, APC5531-AA; assay: two-hybrid library CCmax; settings: mean of both orientations
T32 chain: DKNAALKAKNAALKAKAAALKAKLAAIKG

APC1987-AA = biological target: T33, APC1987-AA; assay: two-hybrid library CCmax; settings: mean of both orientations
T33 chain: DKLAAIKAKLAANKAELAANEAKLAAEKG

APC3881-AA = biological target: T34, APC3881-AA; assay: two-hybrid library CCmax; settings: mean of both orientations
T34 chain: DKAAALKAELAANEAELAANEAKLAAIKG

APC2811-AA = biological target: T35, APC2811-AA; assay: two-hybrid library CCmax; settings: mean of both orientations
T35 chain: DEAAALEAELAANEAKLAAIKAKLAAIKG

APC6088-AA = biological target: T36, APC6088-AA; assay: two-hybrid library CCmax; settings: mean of both orientations
T36 chain: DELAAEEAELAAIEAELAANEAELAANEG

APC2556-AA = biological target: T37, APC2556-AA; assay: two-hybrid library CCmax; settings: mean of both orientations
T37 chain: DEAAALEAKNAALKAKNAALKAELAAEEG

APC4100-AA = biological target: T38, APC4100-AA; assay: two-hybrid library CCmax; settings: mean of both orientations
T38 chain: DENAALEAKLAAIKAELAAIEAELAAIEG

APC222-AA = biological target: T39, APC222-AA; assay: two-hybrid library CCmax; settings: mean of both orientations
T39 chain: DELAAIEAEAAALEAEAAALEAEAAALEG

APC9141-AA = biological target: T40, APC9141-AA; assay: two-hybrid library CCmax; settings: mean of both orientations
T40 chain: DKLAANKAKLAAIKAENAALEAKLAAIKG

APC2543-AA = biological target: T41, APC2543-AA; assay: two-hybrid library CCmax; settings: mean of both orientations
T41 chain: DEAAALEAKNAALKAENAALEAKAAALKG

APC1916-AA = biological target: T42, APC1916-AA; assay: two-hybrid library CCmax
T42 chain: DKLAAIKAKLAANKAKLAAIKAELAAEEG

APC3354-AA = biological target: T43, APC3354-AA; assay: two-hybrid library CCmax; settings: mean of both orientations
T43 chain: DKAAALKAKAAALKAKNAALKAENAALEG

APC8516-AA = biological target: T44, APC8516-AA; assay: two-hybrid library CCmax; settings: mean of both orientations
T44 chain: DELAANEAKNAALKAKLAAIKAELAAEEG

APC9806-AA = biological target: T45, APC9806-AA; assay: two-hybrid library CCmax; settings: mean of both orientations
T45 chain: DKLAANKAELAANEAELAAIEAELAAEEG

APC5009-AA = biological target: T46, APC5009-AA; assay: two-hybrid library CCmax; settings: mean of both orientations
T46 chain: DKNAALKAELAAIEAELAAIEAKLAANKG

B1: 4H1393-bH (peptide)
chain: DENQELEKKIEELKRKNWELEKEIQELER
4H3129-bH
  interaction score: 0.0961
4H1804-bH
  interaction score: -1.63
4H1393-bH
  interaction score: -0.111
4H1629-bH
  interaction score: -0.557
4H3172-bH
  interaction score: -0.553
4H1710-bH
  interaction score: -0.501
4H3628-bA
  interaction score: -0.789
4H570-bH
  interaction score: -0.453
4H584-bH
  interaction score: -0.3
4H3638-bH
  interaction score: 1.2
4H619-bH
  interaction score: -1.79
4H1449-bH
  interaction score: -2.77
4H850-bH
  interaction score: 0.00584
4H906-bH
  interaction score: -1.05
4H3414-bH
  interaction score: 1
4H3974-bH
  interaction score: 0.0308
4H2702-bA
  interaction score: -2.15
4H3817-bH
  interaction score: -0.474

B2: APC1916-AA (peptide)
chain: DKLAAIKAKLAANKAKLAAIKAELAAEEG
APC2724-AA
  interaction score: -1.83
APC3265-AA
  interaction score: -1.75
APC2257-AA
  interaction score: -1.73
APC9291-AA
  interaction score: -2.08
APC9182-AA
  interaction score: -1.82
APC542-AA
  interaction score: -1.62
APC2981-AA
  interaction score: -1.78
APC7524-AA
  interaction score: -1.57
APC2474-AA
  interaction score: -1.31
APC2375-AA
  interaction score: -1.88
APC3323-AA
  interaction score: -1.94
APC4336-AA
  interaction score: -1.64
APC8401-AA
  interaction score: -0.817
APC5531-AA
  interaction score: -1.75
APC1987-AA
  interaction score: -2.06
APC3881-AA
  interaction score: -1.78
APC2811-AA
  interaction score: -2.01
APC6088-AA
  interaction score: -1.82
APC2556-AA
  interaction score: -1.71
APC4100-AA
  interaction score: 0.352
APC222-AA
  interaction score: -1.45
APC9141-AA
  interaction score: -1.7
APC2543-AA
  interaction score: -1.62
APC1916-AA
  interaction score: -1.89
APC3354-AA
  interaction score: -1.8
APC8516-AA
  interaction score: -1.83
APC9806-AA
  interaction score: -2.04
APC5009-AA
  interaction score: -0.00974
